The source of these data is patent US12692310B2, “ASIC1 channel antagonist antibody” (ShanghaiTech University, priority 2019, dated 2026).

In data set [1] the target is T1, hASIC1a-eYFP on CHO-K1 cells (Homo sapiens, UniProt P78348).
T1 construct: overexpress the full-length hASIC1a (1-528 amino acids) protein fused with eYFP; expressed in transfected cells; host or cells: CHO-K1, transient
T1 sequence (P78348 1-528): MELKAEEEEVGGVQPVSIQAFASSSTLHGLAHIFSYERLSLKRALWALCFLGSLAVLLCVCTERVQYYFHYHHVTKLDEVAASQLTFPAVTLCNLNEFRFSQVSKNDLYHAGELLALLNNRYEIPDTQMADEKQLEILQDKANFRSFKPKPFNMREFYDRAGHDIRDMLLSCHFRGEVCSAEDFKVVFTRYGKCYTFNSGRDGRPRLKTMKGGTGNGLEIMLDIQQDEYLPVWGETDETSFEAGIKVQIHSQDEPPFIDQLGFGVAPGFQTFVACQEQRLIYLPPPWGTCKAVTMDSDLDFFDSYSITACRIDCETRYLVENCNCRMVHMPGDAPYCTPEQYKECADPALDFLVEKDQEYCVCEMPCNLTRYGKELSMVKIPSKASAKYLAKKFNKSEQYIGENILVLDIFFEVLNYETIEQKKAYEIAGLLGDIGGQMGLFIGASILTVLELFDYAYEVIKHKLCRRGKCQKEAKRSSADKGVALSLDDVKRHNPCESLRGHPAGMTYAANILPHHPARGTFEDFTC
Briefly: Immunocytochemistry on CHO-K1/hASIC1a cells. Type of data set: cell-based. The following applies: ICC, confocal. The protocol:
Cell Membrane Colocalization Studies Using Immunocytochemistry (ICC). Cells (CHO-K1) were seeded onto the poly-D-lysine-coated glass bottom 24-well plates at a concentration of 2×10^5 cells per mL. After 12 h of cultivation, the CHO-K1 cells were transfected with ASIC plasmids by Lipofectin 3000 reagent. Twenty-four hours after transfection, the cells were fixed in 4% paraformaldehyde and incubated for 30 min in a blocking solution (5% goat serum in PBS). The resulting cells were incubated with […] ASC06-IgG1 at 4° C. overnight followed by three PBS washes for 5 min each and incubation with the Alexa555-conjugated goat anti-human secondary antibody (Life Technology). After three additional PBS washes for 5 min each, the nuclei of the cells were stained with DAPI (#10236276001; Roche). The ICC analysis was performed on a laser scanning confocal microscopy (ZEISS LSM710) with a 63×N.A. 1.4 objective at 25° C. Images were collected on a 1,024×1,024-pixel EM-CCD camera. Data acquisition and analyses were performed with the ZEN 2012 professional software.
To understand whether ASC01-ASC06 specifically bind to the ASIC1a protein expressed on cell surface, the binding of the antibodies to CHO-K1/hASIC1a cells was evaluated using immunocytochemistry. The CHO-K1/hASIC1a cells overexpress the full-length hASIC1a (1-528 amino acids) protein fused with eYFP. […] It is likely that ASC01-ASC05 recognize specific ASIC1a confirmations or subpopulations.
The ASC06 antibody was converted into a full length IgG1 form (ASC06-IgG1) for further study. […] The binding of ASC06-IgG1 to CHO-K1/hASIC1a cells was evaluated using immunocytochemistry, in comparison with the ASC06 (scFv format) antibody.

Data set [2] in a line: pH stability, SEC-HPLC analysis. Type of data set: physicochemical. Details: dose or concentration left out as unconfirmed. The following applies: pH 7.4 to 5.0, 6 h at 37° C. The protocol:
The tolerance of ASC06-IgG1 to acidic conditions was tested. A concentrated ASC06-IgG1 solution ([…]) was incubated at different pH values (from 7.4 to 5.0) for 6 h at 37° C. and subjected to SEC-HPLC analysis.
Background: Size exclusion chromatography separates by hydrodynamic size, large species first.

Data set [3] has as its system hASIC1a-eYFP stable cells (6H7). Briefly: Acidosis-induced cell death, CCK8 and LDH release. In kind it is cell-based. The protocol: Acidosis-Induced Cell Death. The hASIC1a-eYFP stable cells (6H7) and CHO-K1 cells were seeded in a 96-well plate at a density of 10,000 cells per well 1 d before treatment. ECF solutions at pH 5.5, 6.0, and 7.4 were used to treat the cells at 37° C. for 6 h. To test the rescuing effect of ASC06-IgG1, the antibody was dissolved in an acidic ECF (pH 5.5) to make the final antibody concentrations of 0, 50, 100, 300, 500, and 1,000 nM. The 6H7 cells were first preincubated with the antibody at the corresponding concentrations at 37° C. for 30 min in cell media. After replacing the cell media with the corresponding acidic ECFs, the cells were incubated at 37° C. for 6 h, washed with a PBS buffer (pH 7.4), and then cultured in a 1% FBS DMEM/F-12K media overnight. The supernatants of the overnight culture were collected for the LDH release measurement using a LDH Assay kit (#88953; Thermo Fisher Scientific). The cells viability was determined using the CCK-8 assay kit (#CK04; Dojindo).
Extracellular acidosis in stroke or ischemia-reperfusion injury is known to induce the activation of ASIC1a channels, which leads to neuronal death in the central nervous system, most likely through transient increase of intracellular calcium and related cell signaling mediated by ASIC1a. The survival of hASIC1a overexpressing stable cells was assessed by measuring the enzymatic activities of cytoplasmic dehydrogenases (CCK8 assay) and the concentrations of lactate dehydrogenase (LDH) secreted into the cell media, which reflect the cell viability and cytotoxicity, respectively. […] In the presence of […] ASC06-IgG1, approximately 45% of the ASIC1a expressing stable cells survived at pH 5.5 comparing to about a 5% survival rate in the absence of the antibody. Consistent with CCK8 result, the concentration of LDH released into cell media decreased after the addition of ASC06-IgG1 is also in a dose-dependent manner (FIG. 7D).
A general note: LDH in the medium is a marker of cell lysis.

The target of data set [4] is T2, hASIC1a-eYFP (Homo sapiens, UniProt P78348).
T2 sequence (P78348 1-528): T1 sequence (P78348 1-528)
Briefly: Western blot and immunoprecipitation of 6H7 cell lysate. Type of data set: binding. On the set-up: expressed in transfected cells. From the text: To characterize the interaction between ASC06-IgG1 and hASIC1a, the 6H7 stable line expressing the hASIC1a-eYFP fusion protein was used in a Western blot analysis. […] In contrast, both the commercial goat polyclonal anti-ASIC1 antibody and the anti-eYFP antibody were able to detect the hASIC1a-eYFP protein in the 6H7 lysate at molecular mass around 100 kDa (FIG. 13A and data not shown).
ASC06-IgG1 was used to pull down native hASIC1a-YFP in cell lysate followed by anti-eYFP Western blot for hASIC1a-YFP detection.
Background: Immunoblotting shows a protein as a band on a membrane.

B1: ASC06-IgG1: ASC06 antibody converted into a full length IgG1 form (antibody, V domains shown)
VH: QVQLQQSGGGLVQPGGSLRLSCAASGFTFSSYAMSWVRQAPGKGLEWVSAISGSGGSTYYADSVKGRFTISRDNSKNTLYLQMNSLRAEDTAVYYCAKDSFYGYSKGDWGQGTLVTVSS
VL: QSALTQPASVSGSPGQSITISCTGTSSDVGAYNYVSWYQQQPGKAPKLMIYGVSNRPSGVSNRFSGSKSGNAASLTISGLQAEDEADYYCSSYTSSSTYVFGTGTKLTVLG
Regarding B1, in data set [1], the “membrane co-localization with hASIC1a” value was “membrane co-localization with hASIC1a”. The “degradation or aggregation by SEC-HPLC” value in data set [2] is on record as “no significant degradation or aggregation”. The “survival of ASIC1a expressing stable cells” value in data set [3] (1,000 nM antibody, pH 5.5, CCK8) was “approximately 45%”. In data set [3] (pH 5.5), the “protective effect against acidosis-induced cell death, in words” value is given as “significant dose-dependent protective effect”. Also, in data set [3] (pH 5.5, dose-dependent), the “concentration of LDH released into cell media” value was “decreased”. Moreover, in data set [4] (denatured lysate of 6H7 cells), the “recognition of hASIC1a in cell lysate in Western blot” value is “could not recognize”. Also, the “pull down of native hASIC1a-YFP, anti-eYFP Western blot” value in data set [4] (immunoprecipitation) is on record as “recognized hASIC1a in a conformation-dependent manner”.
